Experimental findings from paper doi:10.1101/619858 are described below.

For this experiment, the target named is α-Synuclein (α-Syn), wild type (UniProt P37840).

Substance “α-Synuclein (α-Syn), wild type (from UniProt P37840 1-140) (natural protein)” returned a percent of the protein as fibrils (day 5) of 2% and a percent of the protein as oligomers (day 5) of 8%.
